Measurements from paper PMC5687031.

Biological target: full-length Spc29^2-253 (S. cerevisiae) (UniProt P33419)
Assay: SAXS

Sequence of full-length Spc29^2-253 (P33419 2-253): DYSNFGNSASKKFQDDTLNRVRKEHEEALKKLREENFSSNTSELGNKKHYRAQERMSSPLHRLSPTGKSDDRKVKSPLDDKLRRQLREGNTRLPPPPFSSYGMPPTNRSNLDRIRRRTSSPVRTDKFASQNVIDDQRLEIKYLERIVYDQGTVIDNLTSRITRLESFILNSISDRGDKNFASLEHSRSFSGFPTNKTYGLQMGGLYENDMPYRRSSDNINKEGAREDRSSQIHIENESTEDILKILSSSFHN

stoichiometry N: 3 chains
Substance: full-length Spc29^2-253 (from UniProt P33419 2-253) (natural protein)
